The values that follow come from patent publication US20100260668A1 (published 2010).

For assay [1], the target named is T1, CD-80 (UniProt P33681 35-288, limits assumed).
T1 construct: whole, on cells; also called B7-1
T1 sequence (looked up): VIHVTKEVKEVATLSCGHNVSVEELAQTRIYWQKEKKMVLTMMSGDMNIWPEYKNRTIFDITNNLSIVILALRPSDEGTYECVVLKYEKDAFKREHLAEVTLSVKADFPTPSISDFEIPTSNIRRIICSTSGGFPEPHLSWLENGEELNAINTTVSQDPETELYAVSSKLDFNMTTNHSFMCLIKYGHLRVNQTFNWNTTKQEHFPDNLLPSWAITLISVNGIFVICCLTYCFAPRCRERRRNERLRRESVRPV
Kind of assay: flow cytometry on cells carrying the target, 2 ug/mL; N-terminal VD. (In general: Flow cytometry measures light scatter and fluorescence of single cells or particles in a stream.)
Procedure: (§1) Stable cell lines overexpressing a cell-surface antigen of interest or human tumor cell lines were harvested from tissue culture flasks and resuspended in phosphate buffered saline (PBS) containing 5% fetal bovine serum (PBS/FBS). Prior to staining, human tumor cells were incubated on ice with (100 μl) human IgG at 5 μg/ml in PBS/FCS. 1-5×10⁵ cells were incubated with antibody or DVD-Ig (2 μg/mL) in PBS/FBS for 30-60 minutes on ice. […] After 30 minutes incubation on ice, cells were washed twice and resuspended in PBS/FBS. Fluorescence was measured using a Becton Dickinson FACSCalibur (Becton Dickinson, San Jose, Calif.).
(§2) The geometric mean is the n root of the multiplication product of n fluorescent signals (a1×a2×a3 . . . an). With log-transformed data the geometric mean is used to normalize the weighting of the data distribution.

The target of assay [2] is T1, CD-80. Kind of assay: flow cytometry on cells carrying the target, 2 ug/mL; parent antibody.
Procedure: as §1, §2
For another assay, the target named is T2, NRP1 (UniProt O14786 22-923, limits assumed).
T2 construct: whole, on cells; also called neuropilin 1
The description is as above.

Assay [3] concerns the target T1, CD-80. The experiment in a line: flow cytometry on cells carrying the target, 2 ug/mL; C-terminal VD.
Procedure: as §1, §2
For assay [4], the target named is T3, CD-19 (human, UniProt P15391 20-556).
T3 construct: whole, on cells
T3 sequence (looked up): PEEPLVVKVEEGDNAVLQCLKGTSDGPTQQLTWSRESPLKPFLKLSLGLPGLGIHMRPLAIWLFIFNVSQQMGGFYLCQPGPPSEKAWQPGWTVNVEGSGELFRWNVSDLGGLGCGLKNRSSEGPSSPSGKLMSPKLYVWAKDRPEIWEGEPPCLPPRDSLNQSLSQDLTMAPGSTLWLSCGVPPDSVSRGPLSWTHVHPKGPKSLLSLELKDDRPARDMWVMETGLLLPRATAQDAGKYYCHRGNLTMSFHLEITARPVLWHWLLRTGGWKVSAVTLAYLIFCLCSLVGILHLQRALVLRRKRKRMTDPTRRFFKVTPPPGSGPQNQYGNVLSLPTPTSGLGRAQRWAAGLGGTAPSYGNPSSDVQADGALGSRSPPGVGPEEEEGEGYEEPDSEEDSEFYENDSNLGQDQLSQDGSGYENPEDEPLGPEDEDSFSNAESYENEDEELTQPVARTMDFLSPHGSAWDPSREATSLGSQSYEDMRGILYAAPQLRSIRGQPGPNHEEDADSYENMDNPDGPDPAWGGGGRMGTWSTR
Kind of assay: flow cytometry on cells carrying the target, 2 ug/mL; N-terminal VD.
Procedure: as §1, §2

The next assay concerns the target T4, IGF1R (UniProt P08069 31-1367, limits assumed).
T4 construct: whole, on cells; also called insulin-like growth factor receptor
The experiment in a line: flow cytometry on cells carrying the target, 2 ug/mL; parent antibody.

The target in a further assay is T5, CD-20 (UniProt P11836 1-297, limits assumed).
T5 construct: whole, on cells
T5 sequence (looked up): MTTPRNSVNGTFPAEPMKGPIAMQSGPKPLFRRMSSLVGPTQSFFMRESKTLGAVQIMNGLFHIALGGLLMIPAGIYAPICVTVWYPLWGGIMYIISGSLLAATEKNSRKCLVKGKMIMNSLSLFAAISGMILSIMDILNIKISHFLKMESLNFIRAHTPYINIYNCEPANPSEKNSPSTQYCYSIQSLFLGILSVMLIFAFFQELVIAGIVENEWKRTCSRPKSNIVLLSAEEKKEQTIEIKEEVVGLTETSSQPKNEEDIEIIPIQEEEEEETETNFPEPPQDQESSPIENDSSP
Described as above.

For assay [5], the target named is T6, RON (UniProt Q04912 25-1400, limits assumed).
T6 construct: whole, on cells; also called macrophage stimulating protein receptor tyrosine kinase; MSP receptor
The assay is described as above.
Procedure: as §1, §2

In assay [6] the target is T6, RON. The experiment in a line: flow cytometry on cells carrying the target, 2 ug/mL; N-terminal VD.
Procedure: as §1, §2
For a further assay, the target named is T7, recombinant human HGF (human, UniProt P14210 32-728).
T7 construct: The target there is entered as this HGF; also called hepatocyte growth factor
Kind of assay: competition ELISA: antibody co-incubated with 2 nM soluble c-Met Fc on coated HGF (competitor c-Met Fc). For orientation: An ELISA detects its analyte on a solid surface through an enzyme-linked reagent.

Assay [7] addresses T3, CD-19. The experiment in a line: flow cytometry on cells carrying the target, 2 ug/mL; parent antibody.
Procedure: as §1, §2
Assay [8] deals with T8, placental growth factor (PLGF) (UniProt P49763-2 21-149, limits assumed).
T8 construct: also called P1GF
T8 sequence (looked up): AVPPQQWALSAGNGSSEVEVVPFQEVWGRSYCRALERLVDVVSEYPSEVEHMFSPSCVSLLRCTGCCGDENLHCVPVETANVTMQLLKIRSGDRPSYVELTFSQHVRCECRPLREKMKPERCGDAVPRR
Kind of assay: ligand-receptor binding competition assay, PlGF binding to VEGFR1.

T7 sequence (P14210 32-728 limits assumed): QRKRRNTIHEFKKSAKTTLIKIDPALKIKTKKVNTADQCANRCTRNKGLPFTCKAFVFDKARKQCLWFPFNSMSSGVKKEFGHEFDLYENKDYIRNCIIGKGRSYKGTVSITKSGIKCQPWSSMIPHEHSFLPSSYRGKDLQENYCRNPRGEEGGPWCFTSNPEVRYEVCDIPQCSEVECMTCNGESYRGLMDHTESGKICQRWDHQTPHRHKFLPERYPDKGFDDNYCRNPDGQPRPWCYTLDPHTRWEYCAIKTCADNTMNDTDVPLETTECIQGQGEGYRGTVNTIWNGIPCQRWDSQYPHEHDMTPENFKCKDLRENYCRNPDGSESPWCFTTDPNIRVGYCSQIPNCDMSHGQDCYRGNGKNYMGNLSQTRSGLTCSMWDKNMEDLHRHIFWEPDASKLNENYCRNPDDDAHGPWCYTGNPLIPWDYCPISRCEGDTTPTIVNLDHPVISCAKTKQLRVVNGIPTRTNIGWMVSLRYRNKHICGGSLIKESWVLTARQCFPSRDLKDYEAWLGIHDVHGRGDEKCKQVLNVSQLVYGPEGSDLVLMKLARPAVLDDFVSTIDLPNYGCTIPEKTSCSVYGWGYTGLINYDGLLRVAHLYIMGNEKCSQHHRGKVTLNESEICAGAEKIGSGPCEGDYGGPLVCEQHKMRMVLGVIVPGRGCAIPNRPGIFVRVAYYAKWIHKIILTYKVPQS
Procedure for CD-20: as §1, §2
Procedure for IGF1R: as §1, §2
Procedure for NRP1: as §1, §2
Procedure for recombinant human HGF: The wells were washed three times in PBST (PBS containing 0.05% Tween 20), and 100 μl of ULTRA-TMB ELISA (Pierce) were added per well. […] The data were evaluated by calculating the percentage inhibition compared with the maximal signal (control antibody or no antibody added) and the IC₅₀ values were calculated.

B1: DVD006 (bispecific antibody, human IgG1, kappa)
heavy: not shown
light: ESALTQPPSVSGAPGQKVTISCTGSTSNIGGYDLHWYQQLPGTAPKLLIYDINKRPSGISDRFSGSKSGTAASLAITGLQTEDEADYYCQSYDSSLNAQVFGGGTRLTVLGQPKAAPQIVLSQSPAILSPSPGEKVTMTCRASSSVSYIHWFQQKPGSSPKPWIYATSNLASGVPVRFSGSGSGTSYSLTISRVEAEDAATYYCQQWTSNPPTFGGGTKLEIKRTVAAPSVFIFPPSDEQLKSGTASVVCLLNNFYPREAKVQWKVDNALQSGNSQESVTEQDSKDSTYSLSSTLTLSKADYEKHKVYACEVTHQGLSSPVTKSFNRGEC
notes: DVD-Ig; outer AB007 (CD-80), inner AB001 (CD-20); also called CD-80 and CD-20 DVD-Ig
For B1, the “FACS Geometric Mean N-terminal” value with CD-80 [1] is 70.7.

B2: AB007 (antibody, human IgG1, lambda, V domains shown)
VH: QVQLQESGPGLVKPSETLSLTCAVSGGSISGGYGWGWIRQPPGKGLEWIGSFYSSSGNTYYNPSLKSQVTISTDTSKNQFSLKLNSMTAADTAVYYCVRDRLFSVVGMVYNNWFDVWGPGVLVTVSS
VL: ESALTQPPSVSGAPGQKVTISCTGSTSNIGGYDLHWYQQLPGTAPKLLIYDINKRPSGISDRFSGSKSGTAASLAITGLQTEDEADYYCQSYDSSLNAQVFGGGTRLTVLG
notes: Parent antibody; also called anti-CD-80 parent antibody
As for B2, the “FACS Geometric Mean” value with CD-80 [2] worked out at 25.4.

B3: AB016 (antibody, human IgG1, kappa, V domains shown)
VH: EVQLVESGGGLVQPGGSLRLSCAASGFSFSSEPISWVRQAPGKGLEWVSSITGKNGYTYYADSVKGRFTISADTSKNTAYLQMNSLRAEDTAVYYCARWGKKVYGMDVWGQGTLVTVSS
VL: DIQMTQSPSSLSASVGDRVTITCRASQSISSYLAWYQQKPGKAPKLLIYGASSRASGVPSRFSGSGSGTDFTLTISSLQPEDFATYYCQQYMSVPITFGQGTKVEIKR
notes: Parent antibody
Consider B3, for which the “FACS Geometric Mean” value with NRP1 was 338.

B4: DVD005 (bispecific antibody, human IgG1, lambda)
heavy: not shown
light: QIVLSQSPAILSPSPGEKVTMTCRASSSVSYIHWFQQKPGSSPKPWIYATSNLASGVPVRFSGSGSGTSYSLTISRVEAEDAATYYCQQWTSNPPTFGGGTKLEIKRTVAAPESALTQPPSVSGAPGQKVTISCTGSTSNIGGYDLHWYQQLPGTAPKLLIYDINKRPSGISDRFSGSKSGTAASLAITGLQTEDEADYYCQSYDSSLNAQVFGGGTRLTVLGQPKAAPSVTLFPPSSEELQANKATLVCLISDFYPGAVTVAWKADSSPVKAGVETTTPSKQSNNKYAASSYLSLTPEQWKSHRSYSCQVTHEGSTVEKTVAPTECS
notes: DVD-Ig; outer AB001 (CD-20), inner AB007 (CD-80); also called CD-20 and CD-80 DVD-Ig
Consider B4, for which the “FACS Geometric Mean C-terminal” value with CD-80 [3] was found to be 6.

B5: DVD002 (bispecific antibody, human IgG1, kappa)
heavy: not shown
light: DILLTQTPASLAVSLGQRATISCKASQSVDYDGDSYLNWYQQIPGQPPKLLIYDASNLVSGIPPRFSGSGSGTDFTLNIHPVEKVDAATYHCQQSTEDPWTFGGGTKLEIKRTVAAPQIVLSQSPAILSPSPGEKVTMTCRASSSVSYIHWFQQKPGSSPKPWIYATSNLASGVPVRFSGSGSGTSYSLTISRVEAEDAATYYCQQWTSNPPTFGGGTKLEIKRTVAAPSVFIFPPSDEQLKSGTASVVCLLNNFYPREAKVQWKVDNALQSGNSQESVTEQDSKDSTYSLSSTLTLSKADYEKHKVYACEVTHQGLSSPVTKSFNRGEC
notes: DVD-Ig; outer AB006 (CD-19), inner AB001 (CD-20); also called CD-19 and CD-20 DVD-Ig
As to B5, in the assay with CD-19 [4], the “FACS Geometric Mean N-terminal” value was 1100.

B6: AB011 (antibody, human IgG1, kappa, V domains shown)
VH: EVQLLESGGGLVQPGGSLRLSCTASGFTFSSYAMNWVRQAPGKGLEWVSAISGSGGTTFYADSVKGRFTISRDNSRTTLYLQMNSLRAEDTAVYYCAKDLGWSDSYYYYYGMDVWGQGTTVTVSS
VL: DIQMTQFPSSLSASVGDRVTITCRASQGIRNDLGWYQQKPGKAPKRLIYAASRLHRGVPSRFSGSGSGTEFTLTISSLQPEDFATYYCLQHNSYPCSFGQGTKLEIKR
notes: Parent antibody
Take B6: in the assay with IGF1R, the “FACS Geometric Mean” value came to 1680.

B7: AB001 (antibody, human IgG1, kappa, V domains shown)
VH: QVQLQQPGAELVKPGASVKMSCKASGYTFTSYNMHWVKQTPGRGLEWIGAIYPGNGDTSYNQKFKGKATLTADKSSSTAYMQLSSLTSEDSAVYYCARSTYYGGDWYFNVWGAGTTVTVSA
VL: QIVLSQSPAILSPSPGEKVTMTCRASSSVSYIHWFQQKPGSSPKPWIYATSNLASGVPVRFSGSGSGTSYSLTISRVEAEDAATYYCQQWTSNPPTFGGGTKLEIKR
notes: Parent antibody; also called anti-CD-20 parent antibody
In the case of B7, the “FACS Geometric Mean” value in the assay with CD-20 was 95.8.

B8: AB005 (antibody, human IgG1, kappa, V domains shown)
VH: EVQLVQSGGGLVKPGGSLRLSCAASGFTFSSYAMHWVRQAPGKGLEWVAVISYDGSNKYYADSVKGRFTISRDNSKNTLYLQMNSLRAEDTAVYYCARFSGWPNNYYYYGMDVWGQGTTVTVSS
VL: DVVMTQSPLSLPVTPGEPASISCRSSQSLLHSNGFNYVDWYLQKPGQSPHLLIYFGSYRASGVPDRFSGSGSGTDFTLKISRVEAEDVGVYYCMQALQTPPWTFGQGTKVEIRR
notes: Parent antibody
Consider B8, for which the “FACS Geometric Mean” value with RON [5] came out at 54.5.

B9: DVD033 (bispecific antibody, human IgG1, kappa)
heavy: not shown
light: DVVMTQSPLSLPVTPGEPASISCRSSQSLLHSNGFNYVDWYLQKPGQSPHLLIYFGSYRASGVPDRFSGSGSGTDFTLKISRVEAEDVGVYYCMQALQTPPWTFGQGTKVEIRRTVAAPDIQMTQSPSSVSASVGDRVTITCRASQGISSWLAWYQQKPGKAPNLLIYEASSLQSGVPSRFGGSGSGTDFTLTISSLQPEDFATYYCQQANGFPWTFGQGTKVEIKRTVAAPSVFIFPPSDEQLKSGTASVVCLLNNFYPREAKVQWKVDNALQSGNSQESVTEQDSKDSTYSLSSTLTLSKADYEKHKVYACEVTHQGLSSPVTKSFNRGEC
notes: DVD-Ig; outer AB005 (RON), inner AB012 (HGF); also called RON and HGF DVD-Ig
Turning to B9, the “FACS Geometric Mean N-terminal” value with RON [6] came out at 6.46.

B10: AB012 (anti-HGF (seq. 1) parent antibody) (antibody, human IgG1, kappa, V domains shown)
VH: QVQLVESGGGLVKPGGSLRLSCAASGFTFSDYYMSWIRQAPGKGLEWVSYISSSGSTIYYADSVKGRFTISRDNAKNSLYLQMNSLRAEDTAVYYCARDEYNSGWYVLFDYWGQGTLVTVSS
VL: DIQMTQSPSSVSASVGDRVTITCRASQGISSWLAWYQQKPGKAPNLLIYEASSLQSGVPSRFGGSGSGTDFTLTISSLQPEDFATYYCQQANGFPWTFGQGTKVEIKR
notes: also called AB012VH/AB012VL
In general, IC50 refers to the concentration that inhibits the measured activity by half. On to B10, for which the IC50 with recombinant human HGF is 0.18 nM.

B11: AB006 (antibody, human IgG1, kappa, V domains shown)
VH: QVQLQQSGAELVRPGSSVKISCKASGYAFSSYWMNWVKQRPGQGLEWIGQIWPGDGDTNYNGKFKGKATLTADESSSTAYMQLSSLASEDSAVYFCARRETTTVGRYYYAMDYWGQGTSVTVSS
VL: DILLTQTPASLAVSLGQRATISCKASQSVDYDGDSYLNWYQQIPGQPPKLLIYDASNLVSGIPPRFSGSGSGTDFTLNIHPVEKVDAATYHCQQSTEDPWTFGGGTKLEIKR
notes: Parent antibody
B11: the “FACS Geometric Mean” value in the assay with CD-19 [7] came to 979.

B12: AB047 (antibody, human IgG1, kappa, V domains shown)
VH: QVQLQQSGAELVKPGASVKISCKASGYTFTDYYINWVKLAPGQGLEWIGWIYPGSGNTKYNEKFKGKATLTIDTSSSTAYMQLSSLTSEDTAVYFCVRDSPFFDYWGQGTLLTVSS
VL: DIVLTQSPDSLAVSLGERVTMNCKSSQSLLNSGMRKSFLAWYQQKPGQSPKLLIYWASTRESGVPDRFTGSGSGTDFTLTISSVQAEDVAVYYCKQSYHLFTFGSGTKLEIKR
notes: Parent anti-PlGF antibody; also called AB047VH
As to B12, the IC50 in [8] is 3.07 nM.
